# Data: the supplement of paper PMC7125110
# ± gives the standard error. Fewer inactive variants are shown than the library holds.
# B1: glmS ribozyme (parent)
# chain: AUAAAAGCGCCAGAACUACAGAAAUGUAGUUGACGAGGAGGAGGUUUAUCGAAUUUUCGGCGGAUGCCUCCAAA
# Columns and labels:
# Details in all cases: with glucosamine-6-phosphate
# glucosamine-6-phosphate [1] = variants of: B1; assay: self-cleavage kobs at 40 uM GlcN6P; higher = faster cleavage; RNA array
# Summary of the method: (§1)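 Using a hybridised Cy3 probe at 37 °C, barcoded ribozyme variants transcribed in situ by E. coli RNA polymerase on sequenced MiSeq chips were monitored across tiles imaged over ~14 h. The flow contained glucosamine-6-phosphate from 40 μM to 10 mM in HEPES/KCl/Mg(OAc)2 buffer. Signals were normalised to baseline and to non-cleaving reference variants before per-tile medians were fit to one- or two-exponential decays to yield kobs. Weighted Michaelis–Menten fits across concentrations gave kcat and KM.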
# glucosamine-6-phosphate [2] = variants of: B1; assay: self-cleavage kobs at 10000 uM GlcN6P; higher = faster cleavage; RNA array
# Summary of the method: as §1
# glucosamine-6-phosphate [3] = variants of: B1; assay: self-cleavage kobs at 2500 uM GlcN6P; higher = faster cleavage; RNA array
# Summary of the method: as §1
# glucosamine-6-phosphate [4] = variants of: B1; assay: self-cleavage kobs at 640 uM GlcN6P; higher = faster cleavage; RNA array
# Summary of the method: as §1
# glucosamine-6-phosphate [5] = variants of: B1; assay: self-cleavage kobs at 160 uM GlcN6P; higher = faster cleavage; RNA array
# Summary of the method: as §1
Variant,self-cleavage kobs at 40 uM GlcN6P (glucosamine-6-phosphate [1]),self-cleavage kobs at 10000 uM GlcN6P (glucosamine-6-phosphate [2]),self-cleavage kobs at 2500 uM GlcN6P (glucosamine-6-phosphate [3]),self-cleavage kobs at 640 uM GlcN6P (glucosamine-6-phosphate [4]),self-cleavage kobs at 160 uM GlcN6P (glucosamine-6-phosphate [5])
C11G G43C A64U,< 1e-05 s⁻¹,< 1e-05 s⁻¹,–,–,–
C8G A48G U54A,< 1e-05 s⁻¹,< 1e-05 s⁻¹,< 1e-05 s⁻¹,–,–
C16U G41A G59U,< 1e-05 s⁻¹,< 1e-05 s⁻¹,< 1e-05 s⁻¹,< 1e-05 s⁻¹,–
A15C U55A C61G,< 1e-05 s⁻¹,< 1e-05 s⁻¹,–,–,–
A12G G63A A64U,< 1e-05 s⁻¹,–,< 1e-05 s⁻¹,–,< 1e-05 s⁻¹
A12U A42G U46G G63U,< 1e-05 s⁻¹,< 1e-05 s⁻¹,–,–,–
A42G U46C A48U,< 1e-05 s⁻¹,–,–,–,–
A14G A39U U56C,0.000144 ± 2.6e-05 s⁻¹,0.00921 ± 0.0012 s⁻¹,–,–,–
A14C U31A U54A,0.000186 ± 4.9e-05 s⁻¹,0.0192 ± 0.0058 s⁻¹,–,–,–
C10G G63C,< 1e-05 s⁻¹,–,< 1e-05 s⁻¹,< 1e-05 s⁻¹,< 1e-05 s⁻¹
C10G G40C C70G,< 1e-05 s⁻¹,< 1e-05 s⁻¹,< 1e-05 s⁻¹,< 1e-05 s⁻¹,< 1e-05 s⁻¹
G7U G37C A39C G62C,< 1e-05 s⁻¹,–,–,–,–
A36C U49A G62C C70U,< 1e-05 s⁻¹,< 1e-05 s⁻¹,–,–,–
G7U G35A,< 1e-05 s⁻¹,< 1e-05 s⁻¹,< 1e-05 s⁻¹,< 1e-05 s⁻¹,< 1e-05 s⁻¹
G32U G38C U55A,< 1e-05 s⁻¹,< 1e-05 s⁻¹,–,< 1e-05 s⁻¹,–
U30C U55A U57G,< 1e-05 s⁻¹,–,–,–,–
A53G C61G,< 1e-05 s⁻¹,–,–,–,–
A48U G63C,< 1e-05 s⁻¹,< 1e-05 s⁻¹,< 1e-05 s⁻¹,< 1e-05 s⁻¹,< 1e-05 s⁻¹
G35U C58U,< 1e-05 s⁻¹,< 1e-05 s⁻¹,< 1e-05 s⁻¹,–,< 1e-05 s⁻¹
G38U A52G U69G,0.000147 ± 5.7e-05 s⁻¹,7.13e-05 ± 1.9e-05 s⁻¹,–,–,–
C8U A12C A15G C67U,< 1e-05 s⁻¹,< 1e-05 s⁻¹,–,–,–
G7U C10G A15C G37C,< 1e-05 s⁻¹,–,–,–,–
A36C A39G G60U,< 1e-05 s⁻¹,–,< 1e-05 s⁻¹,< 1e-05 s⁻¹,–
G7U U65C,< 1e-05 s⁻¹,< 1e-05 s⁻¹,< 1e-05 s⁻¹,< 1e-05 s⁻¹,< 1e-05 s⁻¹
G66A C71A,0.000146 ± 2.1e-05 s⁻¹,0.00424 ± 0.00059 s⁻¹,–,0.0014 ± 0.00036 s⁻¹,0.00048 ± 9.5e-05 s⁻¹
U47G C70U,0.000323 ± 3.2e-05 s⁻¹,–,0.000583 ± 0.00011 s⁻¹,0.00192 ± 0.00055 s⁻¹,0.000641 ± 8.8e-05 s⁻¹

Variant,self-cleavage kobs at 40 uM GlcN6P (glucosamine-6-phosphate [1]),self-cleavage kobs at 10000 uM GlcN6P (glucosamine-6-phosphate [2]),self-cleavage kobs at 2500 uM GlcN6P (glucosamine-6-phosphate [3]),self-cleavage kobs at 640 uM GlcN6P (glucosamine-6-phosphate [4]),self-cleavage kobs at 160 uM GlcN6P (glucosamine-6-phosphate [5])
A12U A33U U47G U49G U55G C68U,< 1e-05 s⁻¹,–,–,–,–
C16A A39U G51U,< 1e-05 s⁻¹,–,–,–,–
G7U A42G U49G C70G,< 1e-05 s⁻¹,–,–,–,–
C16A U30A A33G U55C,< 1e-05 s⁻¹,–,–,–,–
A15C U31C G51C U56G C70G,< 1e-05 s⁻¹,< 1e-05 s⁻¹,–,–,–
G43C A52U,< 1e-05 s⁻¹,< 1e-05 s⁻¹,< 1e-05 s⁻¹,< 1e-05 s⁻¹,< 1e-05 s⁻¹
C10U A14G A52U G60U,< 1e-05 s⁻¹,< 1e-05 s⁻¹,< 1e-05 s⁻¹,–,–
A14G C34G,< 1e-05 s⁻¹,< 1e-05 s⁻¹,–,–,< 1e-05 s⁻¹
A42U C58A,< 1e-05 s⁻¹,–,–,< 1e-05 s⁻¹,< 1e-05 s⁻¹
A39G U45C U57C C70U C71U,< 1e-05 s⁻¹,–,–,–,–
A6G U31C C68A,< 1e-05 s⁻¹,–,–,–,–
C16U A48U G62U,< 1e-05 s⁻¹,< 1e-05 s⁻¹,–,< 1e-05 s⁻¹,–
G7A C11U U30A,< 1e-05 s⁻¹,–,–,–,–
A6C A14U G41U C70U,< 1e-05 s⁻¹,–,–,–,–
G35U U69C,< 1e-05 s⁻¹,< 1e-05 s⁻¹,< 1e-05 s⁻¹,–,< 1e-05 s⁻¹
C10G G35U A39U,< 1e-05 s⁻¹,–,–,–,–
A12G G13A C61G,< 1e-05 s⁻¹,< 1e-05 s⁻¹,–,–,–
G62C U65C,< 1e-05 s⁻¹,–,< 1e-05 s⁻¹,< 1e-05 s⁻¹,< 1e-05 s⁻¹
C50U A64C C67A,< 1e-05 s⁻¹,–,< 1e-05 s⁻¹,< 1e-05 s⁻¹,–
A39G U54G,0.00177 ± 0.00036 s⁻¹,–,0.0305 ± 0.013 s⁻¹,0.00627 ± 0.0015 s⁻¹,0.00227 ± 0.00056 s⁻¹
C61G C70U,< 1e-05 s⁻¹,< 1e-05 s⁻¹,–,–,–
A39G U55G C67A,0.000369 ± 0.00011 s⁻¹,0.0117 ± 0.003 s⁻¹,–,–,–
C50G G51A G59A,< 1e-05 s⁻¹,–,–,–,–
G7U A33U A52G,< 1e-05 s⁻¹,–,–,–,–
U47A U54G,0.0005 ± 0.00016 s⁻¹,–,0.00345 ± 0.0016 s⁻¹,0.0103 ± 0.0034 s⁻¹,–
C11A A53U U57G C71A,0.000108 ± 2.7e-05 s⁻¹,9.23e-05 ± 2.2e-05 s⁻¹,0.000141 ± 6.7e-05 s⁻¹,0.000248 ± 7.4e-05 s⁻¹,–
